The values below come from patent US20050136043A1, “TGFbeta signaling inhibitors” (Ludwig Institute for Cancer Research, priority 2003, published 2005).

Test [1] deals with T1, ALK-1 (Homo sapiens, UniProt P37023).
T1 construct: made in house; host or cells: COS-7 cells (transfected, immunoprecipitated)
The test is described as follows: In vitro kinase assay (autophosphorylation) of receptor expressed in COS-7 cells. The class given is biochemical. As to conditions: 10 μM peptide, FIG. 5. The procedure: (§1) For in vitro kinase assay of type I and type II TGFβ family receptors, p38α and SAPKα2 kinases, COS-7 cells were transfected with the kinase expression vectors or the control empty pcDNA3 vector using the DEAE-dextran method. Proteins were extracted in a lysis buffer (50 mM Tris-HCl, pH 7.5, 50 mM NaCl, 1% NP-40, 10 μg/mL aprotinin, 0.1 mM PMSF). HA-tagged proteins (ALK1 to ALK7, p38R, SAPKR2) were immunoprecipitated with anti-HA antibody (12CA5; Roche); His6-tagged proteins (type II receptors) were precipitated with Ni-NTA agarose (Qiagen). The precipitates were washed in extraction buffer, with 20 mM imidazole for Ni-NTA agarose-precipitated proteins, and two times with kinase buffer (20 mM HEPES, pH 7.4, 10 mM MgCl2, 2 mM MnCl2, 1 mM DTT). The kinase reaction was initiated by addition of 20 μL of kinase buffer containing 0.5 μCi of [γ-32P]ATP, 5.0 μM ATP, and inhibitory peptides at a final concentration of 10 μM. The reaction was performed at 22° C. for 20 min and terminated by addition of SDS-containing sample buffer and boiling for 5 min. The reaction products were analyzed by SDS-PAGE and exposure in a Fuji X2000 phosphorimager. Equal loading was controlled by immunoblotting aliquots of the samples with a HA probe (Y-11; Santa Cruz) or anti-His antibody (Qiagen).
(§2) To evaluate whether the substrate-mimicking peptides affect kinases of type I and type II reptors of the TGFβ family, we studied the influence of peptides on authophosphorylation of all known mammalian type I receptors [ALK-1, ActR-I (ALK-2), BMPR-IA (ALK-3), ActR-IB (ALK-4), TβR-I (ALK-5), BMPR-IB (ALK-6), and ALK-7], TβRII, ActR-II, BMPR-II, p38R, and SAPKR2 (FIG. 5). The kinases were expressed in COS-7 cells and purified by using specific anti-tag antibodies or Ni-NTA agarose, and kinase activity was tested in the presence of peptides.

Test [2] deals with T2, ActR-IB (ALK-4) (Homo sapiens, UniProt P36896).
T2 construct: made in house; host or cells: COS-7 cells (transfected, immunoprecipitated)
T2 sequence (P36896 24-505): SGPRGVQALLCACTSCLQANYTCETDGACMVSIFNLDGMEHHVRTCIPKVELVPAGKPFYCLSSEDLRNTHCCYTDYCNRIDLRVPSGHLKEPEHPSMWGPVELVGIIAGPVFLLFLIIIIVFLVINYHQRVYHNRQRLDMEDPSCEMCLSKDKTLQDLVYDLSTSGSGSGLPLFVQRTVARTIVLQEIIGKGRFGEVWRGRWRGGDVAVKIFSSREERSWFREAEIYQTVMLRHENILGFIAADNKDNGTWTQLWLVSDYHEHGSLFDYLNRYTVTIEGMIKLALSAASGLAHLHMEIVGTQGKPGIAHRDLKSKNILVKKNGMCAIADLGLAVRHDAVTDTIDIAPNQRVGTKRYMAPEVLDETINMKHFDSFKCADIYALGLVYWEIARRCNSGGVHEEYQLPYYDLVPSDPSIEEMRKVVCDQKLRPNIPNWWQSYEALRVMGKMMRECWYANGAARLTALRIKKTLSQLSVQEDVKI
The test is described as above. The note with it: 10 μM peptide, FIG. 5. The class given is biochemical. The method, then:
as §1, §2

T1 sequence (P37023 22-503, species assumed): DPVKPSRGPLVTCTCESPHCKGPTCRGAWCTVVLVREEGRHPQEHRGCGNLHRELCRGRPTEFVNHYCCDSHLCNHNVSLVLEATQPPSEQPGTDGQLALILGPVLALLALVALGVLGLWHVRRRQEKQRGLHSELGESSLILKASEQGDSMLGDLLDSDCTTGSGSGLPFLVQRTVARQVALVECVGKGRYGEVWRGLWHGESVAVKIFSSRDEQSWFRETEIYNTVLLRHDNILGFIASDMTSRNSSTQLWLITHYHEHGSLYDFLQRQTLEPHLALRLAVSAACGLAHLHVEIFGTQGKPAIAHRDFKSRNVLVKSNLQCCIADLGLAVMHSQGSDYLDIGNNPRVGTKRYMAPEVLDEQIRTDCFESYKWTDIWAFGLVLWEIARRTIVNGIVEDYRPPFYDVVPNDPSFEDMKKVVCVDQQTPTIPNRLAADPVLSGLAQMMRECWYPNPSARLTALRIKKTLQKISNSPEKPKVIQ

Consider “RQIKIWFQNRRMKWKKTQMGSPSVRCSAMA (listed as Homo sapiens) [antp-Sm2A]”, for which the “Effect on ALK-1 kinase” value in test [1] is “without any effect”. The “Effect on ActR-IB (ALK-4) kinase” value in test [2] is “without any effect”.

As to “RQIKIWFQNRRMKWKKTQMGSPSVRCSSMS (listed as Homo sapiens) [antp-Sm2S, penetratin fused to the C-terminus of wild-type Smad2]”, the “Effect on ALK-1 kinase” value in test [1] is “without any effect”. Besides, the “Effect on ActR-IB (ALK-4) kinase” value in test [2] is reported as “without any effect”.
